Data published in patent US8709741B2, “Methods of diagnosing a plasmodium infection” (priority 2009, dated 2014).
“Also recorded” adds a separate entry of the source. Read-outs that look alike come from different tables or passages of the source.

B1: III: recombinant human group III secreted phospholipase A2 (protein, UniProt Q9NZ20 20-509, looked up)
Group 3 secretory …: GSPALRWYRTSCHLTKAVPGNPLGYLSFLAKDAQGLALIHARWDAHRRLQSCSWEDEPELTAAYGALCAHETAWGSFIHTPGPELQRALATLQSQWEACRALEESPAGARKKRAAGQSGVPGGGHQREKRGWTMPGTLWCGVGDSAGNSSELGVFQGPDLCCREHDRCPQNISPLQYNYGIRNYRFHTISHCDCDTRFQQCLQNQHDSISDIVGVAFFNVLEIPCFVLEEQEACVAWYWWGGCRMYGTVPLARLQPRTFYNASWSSRATSPTPSSRSPAPPKPRQKQHLRKGPPHQKGSKRPSKANTTALQDPMVSPRLDVAPTGLQGPQGGLKPQGARWVCRSFRRHLDQCEHQIGPREIEFQLLNSAQEPLFHCNCTRRLARFLRLHSPPEVTNMLWELLGTTCFKLAPPLDCVEGKNCSRDPRAIRVSARHLRRLQQRRHQLQDKGTDERQPWPSEPLRGPMSFYNQCLQLTQAARRPDRQQKSWSQ
B2: V: recombinant human group V secreted phospholipase A2 (protein, UniProt P39877 21-138, looked up)
Phospholipase A2 group V: GLLDLKSMIEKVTGKNALTNYGFYGCYCGWGGRGTPKDGTDWCCWAHDHCYGRLEEKGCNIRTQSYKYRFAWGVVTCEPGPFCHVNLCACDRKLVYCLKRNLRSYNPQYQYFPNILCS
B3: IIE: recombinant human group IIE secreted phospholipase A2 (protein, UniProt Q9NZK7 20-142, looked up)
Group IIE secretory …: NLVQFGVMIEKMTGKSALQYNDYGCYCGIGGSHWPVDQTDWCCHAHDCCYGRLEKLGCEPKLEKYLFSVSERGIFCAGRTTCQRLTCECDKRAALCFRRNLGTYNRKYAHYPNKLCTGPTPPC
B4: XIIB: recombinant human group XIIB sPLA2-like protein (protein, UniProt Q9BX93 20-195, looked up)
Group XIIB secretory …: QSDTSPDTEESYSDWGLRHLRGSFESVNSYFDSFLELLGGKNGVCQYRCRYGKAPMPRPGYKPQEPNGCGSYFLGLKVPESMDLGIPAMTKCCNQLDVCYDTCGANKYRCDAKFRWCLHSICSDLKRSLGFVSKVEAACDSLVDTVFNTVWTLGCRPFMNSQRAACICAEEEKEEL
B5: IIF: recombinant human group IIF secreted phospholipase A2, full length (protein, UniProt Q9BZM2 21-168, looked up)
Group IIF secretory …: SLLNLKAMVEAVTGRSAILSFVGYGCYCGLGGRGQPKDEVDWCCHAHDCCYQELFDQGCHPYVDHYDHTIENNTEIVCSDLNKTECDKQTCMCDKNMVLCLMNQTYREEYRGFLNVYCQGPTPNCSIYEPPPEEVTCSHQSPAPPAPP
B6: XIIA: recombinant human group XIIA secreted phospholipase A2 (protein, UniProt Q9BZM1 23-189, looked up)
Group XIIA secretory …: QEQAQTTDWRATLKTIRNGVHKIDTYLNAALDLLGGEDGLCQYKCSDGSKPFPRYGYKPSPPNGCGSPLFGVHLNIGIPSLTKCCNQHDRCYETCGKSKNDCDEEFQYCLSKICRDVQKTLGLTQHVQACETTVELLFDSVIHLGCKPYLDSQRAACRCHYEEKTDL
B7: IIA: recombinant human group IIA secreted phospholipase A2 (inflammatory type) (protein, UniProt P14555 21-144, looked up)
Phospholipase A2, membrane …: NLVNFHRMIKLTTGKEAALSYGFYGCHCGVGGRGSPKDATDRCCVTHDCCYKRLEKRGCGTKFLSYKFSNSGSRITCAKQDSCRSQLCECDKAAATCFARNKTTYNKKYQYYSNKHCRGSTPRC

Tests used:
[1] = tested on: P. falciparum FcB1/Colombian strain; assay: Anti-Plasmodium activity assay (dose-response, 3H-hypoxanthine incorporation), culture with human serum; assay type: cell-based; conditions: for inhibition of P. falciparum development in vitro: standard P. falciparum cultures with serum
Experimental: (§1) The chloroquine-resistant P. falciparum FcB1/Colombian strain was used. Under the following culture conditions, the in vitro life cycle of the FcB1 strain was 48 hours. Cultures were grown in complete medium consisting of RPMI 1640 (Life Technologies, Inc.) supplemented with 11 mM glucose, 27.5 mM NaHCO3, 100 UI/mL penicillin, 100 μg/mL streptomycin, adjusted to pH 7.4 before addition of heat-inactivated human serum (A+ blood group, 8% final) or Albumax II® (0.5% final), according to the procedure of Trager and Jensen (1976). Parasites were routinely grown at 37° C. in human A+ RBCs (Red blood cells) at a 2% haematocrit and 2-6% parasitemia, in a 3% CO2, 6% O2 and 91% N2 atmosphere. Semi-synchronized cultures were established by Sorbitol (Lambros) treatment. Highly synchronized cultures (4 hour-window synchronization) were obtained by successive Plamion (Pasvol) and Sorbitol treatments. Parasitaemia and stage distribution were determined by optical examination of Diff-Quick stained culture smears. Parasitaemia (expressed in percent) is hundred times the number of parasitized erythrocytes divided by the total number of erythrocytes.
(§2) Dried preparations of the purified recombinant human sPLA2s were re-suspended at high concentration (usually 50 μM) in RPMI 0.05% BSA, and then tested individually for their capacity to inhibit the in vitro intra-erythrocytic development of P. falciparum. Dose-response assays based on ^3H-hypoxanthine incorporation by growing parasites were performed as in Guillaume et al. (2004). Radioactivity was measured with a 1450 Microbeta counter (Wallac, Perkin Elmer). Percentage of growth inhibition was calculated from the parasite-associated radioactivity compared with control without sPLA2. Values for the IC50 were determined from dose-response curves.

[2] = Specific activities of sPLA2s on human plasma (NEFA release, NEFA-C kit); assay type: biochemical; conditions: for Specific activity ± SD (μmol NEFA/min × mg enzyme): whole human plasma, 37° C., linear part of kinetic curve, mean of three experiments
Experimental: Kinetic analysis of human plasma hydrolysis by sPLA2s was performed by mixing on ice 50 μL of crude plasma with recombinant sPLA2s at various final concentrations (respectively 2×, 5× and 10× the IC50 value). At time zero, the mixture was transferred to 37° C. Samples (7 μL) were taken after 5, 15, 30 and 60 minutes of incubation and quickly frozen at −20° C. An aliquot of plasma without enzyme was similarly processed. Concentration of non-esterified fatty acids (NEFAs) in each sample was measured by a discontinuous enzymatic method using the NEFA-C test kit from WAKO, following manufacturer's instructions. The amount of NEFAs in each enzyme-containing plasma sample was subtracted for NEFAs in enzyme-free plasma sample. Specific activity for each of the sPLA2s was determined from the linear part of the curve [NEFA]=f(t). Experiment was repeated three times with plasmas from different donors and different batches of sPLA2s.
Specific activities of sPLA2s on human plasma. Hydrolysis of plasma phospholipids by human and venom sPLA2s was assayed using different incubation times and enzymes concentrations. Hydrolysis was assessed by measuring the amount of NEFAs in samples using the colorimetric assay developed by WAKO (NEFA-C kit). Enzymatic production of NEFAs was corrected for endogenous production of NEFAs measured in the absence of sPLA2. Specific activity for each of the sPLA2s was determined from the linear part of the kinetic curve. Values are the mean of three independent experiments. SD: standard deviation. Anti-P. falciparum activities (IC50) of the respective sPLA2s are given for comparison.

[3] = Rosengren et al., 2006; cited from earlier work
P. falciparum = assay: Anti-Plasmodium activity assay in Albumax II (serum substitute); assay type: cell-based; conditions: Albumax II instead of serum
Experimental: as §1, with “Highly synchronized cultures (4 hour-window synchronization) were obtained by successive Plamion (Pasvol) and Sorbitol treatments.” left out, “Parasitaemia (expressed in percent) is hundred times the number of parasitized erythrocytes divided by the total number of erythrocytes.” left out
as §2, with “Dose-response assays based on ^3H-hypoxanthine incorporation by growing parasites were performed as in Guillaume et al. (2004).” left out, “curves. […]” for “curves.”

[4] = Enzymatic hydrolysis of purified lipoproteins (NEFA); assay type: biochemical, human; conditions: 15 h at 37° C.
Experimental: CM/VLDL, LDL and HDL were purified from human plasma and used either fresh (F) or after minimal oxidization by air and light (Ox). After phospholipid content determination, plasma, LDL and HDL were adjusted to 1.6 mg PL/mL final concentration in PBS calcium. Because low amount was available, the CM/VLDL fraction was adjusted to 1.0 mg PL/mL. Each sample was incubated for 15 hours at 37° C., alone or in the presence of recombinant human GX sPLA2 (hGX PLA2; 25 nM), recombinant human GIIF sPLA2 (hGIIF PLA2; 125 nM), bee venom sPLA2 (bvPLA2; 0.18 nM) and Naja mossambica mossambica venom sPLA2 (Naja PLA2; 0.05 nM). NEFAs were quantified using the NEFA-C kit (WAKO). Values are the mean±SD of triplicate measurements. They were normalized by subtracting NEFA amount in the absence of enzyme. Two independent experiments with lipoproteins from different plasmas were performed, which gave similar qualitative results. Results from one experiment are shown;
Plasma and purified LDL and HDL were adjusted to 1.67 mg phospholipid (PL)/mL final concentration in PBS. Because purification yielded low amount of CM/VLDL, the CM/VLDL fraction was adjusted to 1.00 mg PL/mL. CaCl2 (1 mM final) was added to the lipoprotein fractions. 200 μL of each fraction were deposited in a 96-well plate and incubated for 15 hours at 37° C., alone or in the presence of recombinant human GX sPLA2 (hGX PLA2, 25.0 nM), recombinant human GIIF sPLA2 (hGIIF PLA2, 125.0 nM), bee venom sPLA2 (bvPLA2, 0.18 nM) and Naja mossambica mossambica venom sPLA2 (Naja PLA2, 0.05 nM). NEFAs were measured in triplicate using the NEFA-C kit (WAKO). Value from each fraction was normalized by subtracting the NEFA amount in the corresponding fraction without enzyme. Two independent experiments with lipoproteins from different plasmas were performed, which gave similar qualitative results. According to the experiment, maximum hydrolysis reached 50% or 65% of total PLs in the fraction. […]

[5] = culture in human red blood cells and serum, mean of independent dose-response assays, read-out: IC50 ± SD (anti-P. falciparum activity)
[6] = Table II, read-out: IC50 (nM), anti-P. falciparum activity given for comparison

Molecule | IC50 [1, 5] [nM] | inhibition of P. falciparum development in vitro [1] | further results
IB: recombinant human group IB secreted phospholipase A2 | > 1250 | non-toxic | 
IID: recombinant human group IID secreted phospholipase A2 | > 250 | non-toxic | 
B1 |  | non-toxic | 
B2 | 162 ± 90.9 | active against P. falciparum | IC50 [1, 6]: 162 ± 90.9 nM; Specific activity ± SD (μmol NEFA/min × mg enzyme) [2]: 0.33 ± 0.09 μmol NEFA/min × mg enzyme; hydrolysis of serum [3]: found active
B3 | > 250 | non-toxic | 
B4 | > 250 | non-toxic | 
B5 | 14.3 ± 10.4 | active against P. falciparum | IC50 [1, 6]: 14.3 ± 13.4 nM; increase of IC50 value in Albumax II relative to its value in serum (P. falciparum): approximately 17.5 fold; Specific activity ± SD (μmol NEFA/min × mg enzyme) [2]: 0.92 ± 0.30 μmol NEFA/min × mg enzyme; hydrolysis of triglyceride-rich lipoproteins (CM/VLDL) ([4]; 125 nM): hydrolysed poorly; preferential order of lipoprotein hydrolysis ([4]; each sPLA2 at approximately 10×IC50): same preferential order than GX sPLA2
B6 | > 250 | non-toxic | 
B7 | > 1250 |  | inhibition of P. falciparum development in vitro ([1]; listed as GIIA): non-toxic; inhibition of P. falciparum development in vitro ([1]; listed as GIIA sPLA2): clearly inactive; also recorded: does not exhibit any inhibitory activity; hydrolysis of plasma ([2]; high concentration (1 μM), not shown): inefficient at hydrolysing plasma; hydrolysis of serum [3]: found inactive
